Test results published in US8124349B2, “Toll-like receptor assays” (University of Massachusetts, priority 2003, dated 2012).

B1: PorinB: the protein PorinB from Neisseria meningitidis (protein)
chain: DVTLYGTIKAGVETSRSVFHQNGQVTEVTTATGIVDLGSKIGFKGQEDLGNGLKAIWQVEQKASIAGTDSGWGNRQSFIGLKGGFGKLRVGRLNSVLKDTGDINPWDSKSDYLGVNKIAEPEARLISVRYDSPEFAGLSGSVQYALNDNAGRHNSESYHAGFNYKNGGFFVQYGGAYKRHHQVQEGLNIEKYQIHRLVSGYDNDALYASVAVQQQDAKLTDASNSHNSQTEVAATLAYRFGNVTPRVSYAHGFKGLVDDADIGNEYDQVVVGAEYDFSKRTSALVSAGWLQEGKGENKFVATAGGVGLRHKF

Tests used:
[1] = target: T1, TLR9^YFP (Homo sapiens, UniProt Q9NR96); test: Competition plate assay: TLR9^YFP binding to plate-bound biotinylated CpG-DNA 2006 in presence of competitor; conditions: plates coated with 0.3 μM biotin-CpG-DNA 2006; competitor added to TLR9^YFP lysate; FIGS. 5A-D
T1 construct: expressed in transfected cells; host or cells: HEK cells stably expressing TLR9^YFP, used as cellular lysate
T1 sequence (Q9NR96 26-1032): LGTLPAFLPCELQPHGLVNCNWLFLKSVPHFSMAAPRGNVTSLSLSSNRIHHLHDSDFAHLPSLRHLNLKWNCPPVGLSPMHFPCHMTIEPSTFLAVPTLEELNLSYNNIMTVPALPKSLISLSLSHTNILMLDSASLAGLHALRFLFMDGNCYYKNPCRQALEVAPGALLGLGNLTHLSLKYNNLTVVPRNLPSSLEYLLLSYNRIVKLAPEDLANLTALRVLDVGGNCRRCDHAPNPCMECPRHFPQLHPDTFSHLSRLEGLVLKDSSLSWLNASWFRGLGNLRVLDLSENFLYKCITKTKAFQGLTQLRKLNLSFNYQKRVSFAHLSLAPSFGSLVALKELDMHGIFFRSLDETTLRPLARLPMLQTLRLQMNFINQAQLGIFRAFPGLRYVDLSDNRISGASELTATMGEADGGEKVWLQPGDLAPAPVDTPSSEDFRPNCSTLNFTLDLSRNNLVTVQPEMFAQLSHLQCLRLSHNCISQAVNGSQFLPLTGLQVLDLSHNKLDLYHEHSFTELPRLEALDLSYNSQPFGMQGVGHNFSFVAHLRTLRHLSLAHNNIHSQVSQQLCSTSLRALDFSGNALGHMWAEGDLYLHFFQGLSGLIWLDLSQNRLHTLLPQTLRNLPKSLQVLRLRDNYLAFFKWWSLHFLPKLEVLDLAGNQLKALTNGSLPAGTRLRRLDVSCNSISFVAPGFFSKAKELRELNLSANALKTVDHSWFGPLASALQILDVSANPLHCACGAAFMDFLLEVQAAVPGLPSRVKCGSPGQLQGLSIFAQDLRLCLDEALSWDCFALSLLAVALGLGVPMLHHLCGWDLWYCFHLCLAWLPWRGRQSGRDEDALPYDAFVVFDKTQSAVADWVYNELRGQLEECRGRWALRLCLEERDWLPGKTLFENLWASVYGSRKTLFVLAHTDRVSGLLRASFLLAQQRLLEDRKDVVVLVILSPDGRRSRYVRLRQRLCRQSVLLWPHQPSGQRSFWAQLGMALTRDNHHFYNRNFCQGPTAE
Text: This assay can be adapted for use in drug-screening applications. For example, the interaction of TLR9 with CpG-DNA reflects a clinically important receptor/ligand interaction since a variety of autoimmune diseases are thought to be based on the interaction of DNA-antibody complexes with this receptor (Leadbetter et al., 2002, Nature 416:603-607). Thus, antagonists for this interaction are useful for the development of novel anti-inflammatory drugs. To examine the application of this assay to the identification of such compounds (e.g., compounds that increase or decrease the interaction) and so are potential drugs for ameliorating TLR-related disorders, a competition assay was developed that was based on the basic plate assay described above. The competition assay was performed essentially as described above for the plate assay. In addition, non-biotinylated CpG-DNA (“cold ligand”) or other compounds that interfere with TLR9 signaling (R848 or bacterial DNA) were added to the TLR9-containing lysates. The ability of the various compounds to inhibit binding of TLR9^YFP to the plate-bound biotinylated CpG-DNA was then evaluated.
In the assay, NeutrAvidin™ plates (Pierce) were coated with 0.3 μM biotin-CpG-DNA 2006 as described above. […]

[2] = target: T2, TLR9 (Homo sapiens, UniProt Q9NR96); test: TLR9 signaling in TLR9-expressing HEK cells; format: cell-based
T2 construct: expressed in transfected cells; host or cells: HEK293 cells stably expressing TLR^FP
T2 sequence (Q9NR96 26-1032): T1 sequence (Q9NR96 26-1032)
Description: Cellular activation was assessed by NF-κB-luciferase reporter assay. Briefly, HEK293 cells that stably express a TLR^FP or empty vector (pcDNA) were seeded into 96-well tissue culture plates at a density of 2×10^4 cells/well. The following day, cells were transiently transfected with luciferase reporter genes using Genejuice (Novagen) per the manufacturer's recommendations. In order to assess NF-κB activation, an NF-κB-luciferase reporter gene consisting of an artificial promoter composed of a multimer of five NF-κB sites driving the firefly luciferase gene, was co-transfected with a constitutively active Renilla-luciferase reporter gene (Promega, Madison, Wis.).

[3] = target: T3, TLR2:Fc (Homo sapiens, UniProt O60603); test: Cell-free ELISA: plated TLR2:Fc probed with biotinylated ligand; format: binding; conditions: FIG. 8B
T3 construct: a fusion protein consisting of the extracellular domain of TLR2 and the mouse Fc portion of immunoglobulin G, isotype 2a
T3 sequence (O60603 21-588 limits assumed, species assumed): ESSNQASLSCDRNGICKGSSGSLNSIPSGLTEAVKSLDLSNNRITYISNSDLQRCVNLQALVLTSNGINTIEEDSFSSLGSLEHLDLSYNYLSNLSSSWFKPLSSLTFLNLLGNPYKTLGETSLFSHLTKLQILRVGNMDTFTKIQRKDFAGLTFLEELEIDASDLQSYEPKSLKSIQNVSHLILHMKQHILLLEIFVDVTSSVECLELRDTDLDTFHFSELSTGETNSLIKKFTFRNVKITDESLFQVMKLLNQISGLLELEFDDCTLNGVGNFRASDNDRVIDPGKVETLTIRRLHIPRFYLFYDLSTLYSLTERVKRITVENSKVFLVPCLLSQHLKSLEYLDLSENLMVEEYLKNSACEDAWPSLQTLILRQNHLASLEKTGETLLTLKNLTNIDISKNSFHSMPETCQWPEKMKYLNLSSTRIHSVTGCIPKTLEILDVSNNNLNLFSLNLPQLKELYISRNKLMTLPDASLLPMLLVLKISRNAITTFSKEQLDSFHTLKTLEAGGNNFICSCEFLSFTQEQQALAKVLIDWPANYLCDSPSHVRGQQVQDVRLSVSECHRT
Description: (§1) Briefly, various TLR2 ligands were plated on plastic in carbonate buffer pH 9 for two hours at different concentrations (X axis) in duplicate points. After washing (PBS-0.05% Tween 20), a fusion protein consisting of the extracellular domain of TLR2 and the mouse Fc portion of immunoglobulin G, isotype 2a (TLR2:Fc, see U.S. Provisional Patent Application Ser. No. 60/598,774), was added at 1 mg/ml (0.1 mg/well).
(§2) In a similar setting, the TLR2:Fc fusion protein and the related TLR4:Fc, were plated on plastic and the biotinylated ligand used to probe the wells. The TLR2 bound biotinylated protein was reveled using a HRP conjugated anti biotin polyclonal antiserum (NEB).

[4] = target: T4, TLR4:Fc (Homo sapiens, UniProt O00206); test: Cell-free ELISA: plated TLR4:Fc probed with biotinylated ligand; format: binding; conditions: FIG. 8B
T4 construct: the TLR2:Fc fusion protein and the related TLR4:Fc, were plated on plastic
T4 sequence (O00206 24-631 limits assumed, species assumed): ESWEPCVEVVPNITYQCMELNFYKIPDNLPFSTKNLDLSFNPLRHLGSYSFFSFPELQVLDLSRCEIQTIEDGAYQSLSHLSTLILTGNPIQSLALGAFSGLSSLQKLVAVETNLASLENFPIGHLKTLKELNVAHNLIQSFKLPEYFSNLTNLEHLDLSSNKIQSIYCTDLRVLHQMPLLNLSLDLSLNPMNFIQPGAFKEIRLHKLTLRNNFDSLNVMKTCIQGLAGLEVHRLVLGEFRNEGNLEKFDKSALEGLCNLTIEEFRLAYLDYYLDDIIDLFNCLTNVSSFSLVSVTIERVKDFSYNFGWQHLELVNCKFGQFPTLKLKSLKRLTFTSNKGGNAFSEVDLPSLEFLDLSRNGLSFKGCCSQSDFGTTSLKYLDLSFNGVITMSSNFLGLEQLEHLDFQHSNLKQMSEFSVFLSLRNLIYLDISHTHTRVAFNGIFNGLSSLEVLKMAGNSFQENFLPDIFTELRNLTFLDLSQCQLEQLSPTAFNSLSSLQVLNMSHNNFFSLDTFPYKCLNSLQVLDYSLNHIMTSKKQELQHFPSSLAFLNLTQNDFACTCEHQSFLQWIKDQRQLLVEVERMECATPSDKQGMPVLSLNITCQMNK
Description: as §1, §2

[5] = target: T5, TLR2 (Homo sapiens, UniProt O60603); test: NF-κB luciferase reporter assay in 293 cells stably expressing TLR2; format: cell-based; conditions: 0.01-10 μg/ml stimulant; FIG. 7B
T5 construct: expressed in transfected cells; host or cells: 293 (HEK 293) cells stably expressing TLR2
T5 sequence (O60603 21-784, species assumed): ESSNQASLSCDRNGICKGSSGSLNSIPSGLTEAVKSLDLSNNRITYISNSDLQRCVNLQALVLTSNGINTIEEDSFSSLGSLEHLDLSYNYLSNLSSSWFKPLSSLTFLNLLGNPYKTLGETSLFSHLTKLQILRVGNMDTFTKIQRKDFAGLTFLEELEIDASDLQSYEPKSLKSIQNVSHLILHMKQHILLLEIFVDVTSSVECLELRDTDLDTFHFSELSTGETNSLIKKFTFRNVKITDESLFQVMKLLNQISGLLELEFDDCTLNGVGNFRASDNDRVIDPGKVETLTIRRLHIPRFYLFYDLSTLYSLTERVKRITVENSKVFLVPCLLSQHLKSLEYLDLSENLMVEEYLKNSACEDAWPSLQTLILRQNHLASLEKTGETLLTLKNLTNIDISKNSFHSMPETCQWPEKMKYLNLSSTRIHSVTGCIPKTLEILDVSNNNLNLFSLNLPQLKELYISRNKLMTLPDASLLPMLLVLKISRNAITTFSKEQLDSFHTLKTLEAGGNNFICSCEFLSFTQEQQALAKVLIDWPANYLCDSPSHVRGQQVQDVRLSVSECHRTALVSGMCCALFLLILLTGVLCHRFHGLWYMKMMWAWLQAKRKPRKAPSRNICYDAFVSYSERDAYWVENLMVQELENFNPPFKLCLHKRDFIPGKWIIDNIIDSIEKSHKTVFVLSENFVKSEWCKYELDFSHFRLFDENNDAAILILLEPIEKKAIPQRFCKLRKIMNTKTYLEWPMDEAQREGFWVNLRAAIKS
T5 sequence (Q15399 25-786 partner, species assumed): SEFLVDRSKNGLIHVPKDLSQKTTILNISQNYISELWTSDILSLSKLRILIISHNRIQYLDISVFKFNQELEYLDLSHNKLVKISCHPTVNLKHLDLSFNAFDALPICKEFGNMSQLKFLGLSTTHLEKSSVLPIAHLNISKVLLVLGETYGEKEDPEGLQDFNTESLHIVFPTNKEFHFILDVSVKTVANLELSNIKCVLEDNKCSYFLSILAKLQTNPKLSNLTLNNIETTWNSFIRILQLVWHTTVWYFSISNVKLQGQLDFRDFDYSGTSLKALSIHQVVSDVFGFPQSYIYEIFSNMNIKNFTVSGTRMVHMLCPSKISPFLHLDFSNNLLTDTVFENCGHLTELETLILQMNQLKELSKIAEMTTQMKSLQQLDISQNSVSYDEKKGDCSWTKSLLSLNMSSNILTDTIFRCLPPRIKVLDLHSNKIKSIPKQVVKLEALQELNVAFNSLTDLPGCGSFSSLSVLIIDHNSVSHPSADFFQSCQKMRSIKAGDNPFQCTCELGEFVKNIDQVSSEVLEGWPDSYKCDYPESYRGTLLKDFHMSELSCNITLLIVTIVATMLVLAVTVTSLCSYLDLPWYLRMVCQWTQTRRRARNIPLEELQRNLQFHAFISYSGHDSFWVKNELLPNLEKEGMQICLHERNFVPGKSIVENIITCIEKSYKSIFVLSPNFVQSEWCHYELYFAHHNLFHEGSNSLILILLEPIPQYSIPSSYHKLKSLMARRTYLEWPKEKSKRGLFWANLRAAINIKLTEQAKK
Description: 293 cells stably expressing TLR4/MD-2 (as described in Visintin et al., 2003, J. Biol. Chem., 278(48):48313-48320) or TLR2 were stimulated using lipopolysaccharide (LPS) or PorinB, and the extent of activation measured as the activation of a NF-κB-dependent reporter gene encoding for the Luciferase gene. To measure NF-κB activation, 2 μg of a reporter plasmid in which NF-κB drives the synthesis of luciferase was transiently cotransfected with 5 μg of the indicated cDNA by lipofection (GeneJuice) in 10-cm tissue culture dishes following the manufacturer's recommendations. The following morning, cells were seeded at a density of 50,000 cells/well in a 96-well plate, allowed to recover for 5 hours, and stimulated as indicated between 6 and 18 hours. Luciferase activity was measured with a plate reader luminometer (Victor^2, PerkinElmer Life Sciences) using chemicals provided with the luciferase assay system (Promega, Madison, Wis.). All data are presented as the means ±S.D. of triplicate well readings, normalized to a value of 1.0 in comparison with an unstimulated negative control.

Molecule | Inhibition of TLR9 binding to biotinylated immobilized CpG-DNA [1] | Inhibition of TLR9 signaling [2] | Binding of biotinylated ligand to plated TLR2:Fc [3] | Binding of biotinylated ligand to plated TLR4:Fc [4] | NF-κB reporter activation in TLR2 expressing cells [5]
CCOCc1nc2c(N)nc3ccccc3c2n1CC(C)(C)O [R848] | did not interfere with the binding of TLR9 to CpG-DNA | inhibited TLR9 signaling in a dose dependent manner |  |  | 
bacterial alkaline phosphatase (BAP): bacterial alkaline phosphatase |  |  | bind to TLR2:Fc | not to TLR4:Fc | 
B1 |  |  | specifically bound | did not | efficiently activates
